Data from publication PMC7388967.

Columns and labels:
[1] = target: Collagen I Rat Protein, Tail (rat collagen type I) (rat) (UniProt P02454); experiment: whole-cell adhesion assay (fluorescence of sfGFP-expressing bacteria); commercial 96-well plates pre-coated with rat collagen type I (GIBCO); YadA induced with 0.2 µg/ml ATc, compared with the not-induced control
[2] = target: Collagen I Bovine Protein (bovine collagen type I) (bovine) (UniProt P02453); experiment: whole-cell adhesion assay (fluorescence of sfGFP-expressing bacteria); strain AS76; wells coated with 100 µg/ml bovine collagen type I for 30 min, with or without blocking with 50 mg/ml BSA in PBS for 30 min; YadA induced with 0.1 µg/ml ATc, compared with uninduced cells
UniProt P02453, sequence (P02453 162-1217, chain 1 of 2): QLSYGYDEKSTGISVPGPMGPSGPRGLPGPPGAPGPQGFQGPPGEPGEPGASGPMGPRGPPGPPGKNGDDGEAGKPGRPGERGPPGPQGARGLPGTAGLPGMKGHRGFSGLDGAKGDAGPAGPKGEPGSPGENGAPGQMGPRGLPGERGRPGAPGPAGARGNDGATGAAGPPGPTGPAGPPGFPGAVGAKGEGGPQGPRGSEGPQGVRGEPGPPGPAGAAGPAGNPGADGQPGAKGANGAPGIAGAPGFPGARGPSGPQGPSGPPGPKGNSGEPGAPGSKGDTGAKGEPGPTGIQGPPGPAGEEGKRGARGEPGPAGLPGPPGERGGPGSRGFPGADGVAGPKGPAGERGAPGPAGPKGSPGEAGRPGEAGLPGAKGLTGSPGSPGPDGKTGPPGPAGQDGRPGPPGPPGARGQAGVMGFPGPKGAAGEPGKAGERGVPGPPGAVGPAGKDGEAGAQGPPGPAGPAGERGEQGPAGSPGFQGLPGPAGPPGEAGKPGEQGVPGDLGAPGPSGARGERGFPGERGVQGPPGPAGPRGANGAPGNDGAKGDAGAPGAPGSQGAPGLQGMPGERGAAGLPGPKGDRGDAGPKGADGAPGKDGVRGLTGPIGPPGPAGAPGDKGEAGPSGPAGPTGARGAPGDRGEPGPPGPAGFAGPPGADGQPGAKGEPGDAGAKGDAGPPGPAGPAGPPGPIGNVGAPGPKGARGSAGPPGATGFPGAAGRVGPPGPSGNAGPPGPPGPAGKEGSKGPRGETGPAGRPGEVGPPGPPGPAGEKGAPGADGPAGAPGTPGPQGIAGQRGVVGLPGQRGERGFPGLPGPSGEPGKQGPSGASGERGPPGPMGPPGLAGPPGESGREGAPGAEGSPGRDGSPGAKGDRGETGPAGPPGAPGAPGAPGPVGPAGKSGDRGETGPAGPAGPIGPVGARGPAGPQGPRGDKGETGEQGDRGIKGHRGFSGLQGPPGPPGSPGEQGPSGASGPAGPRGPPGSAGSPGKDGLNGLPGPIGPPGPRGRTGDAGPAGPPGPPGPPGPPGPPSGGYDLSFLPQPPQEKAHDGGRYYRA
UniProt P02453, sequence (P02465 80-1117, chain 2 of 2, further chain): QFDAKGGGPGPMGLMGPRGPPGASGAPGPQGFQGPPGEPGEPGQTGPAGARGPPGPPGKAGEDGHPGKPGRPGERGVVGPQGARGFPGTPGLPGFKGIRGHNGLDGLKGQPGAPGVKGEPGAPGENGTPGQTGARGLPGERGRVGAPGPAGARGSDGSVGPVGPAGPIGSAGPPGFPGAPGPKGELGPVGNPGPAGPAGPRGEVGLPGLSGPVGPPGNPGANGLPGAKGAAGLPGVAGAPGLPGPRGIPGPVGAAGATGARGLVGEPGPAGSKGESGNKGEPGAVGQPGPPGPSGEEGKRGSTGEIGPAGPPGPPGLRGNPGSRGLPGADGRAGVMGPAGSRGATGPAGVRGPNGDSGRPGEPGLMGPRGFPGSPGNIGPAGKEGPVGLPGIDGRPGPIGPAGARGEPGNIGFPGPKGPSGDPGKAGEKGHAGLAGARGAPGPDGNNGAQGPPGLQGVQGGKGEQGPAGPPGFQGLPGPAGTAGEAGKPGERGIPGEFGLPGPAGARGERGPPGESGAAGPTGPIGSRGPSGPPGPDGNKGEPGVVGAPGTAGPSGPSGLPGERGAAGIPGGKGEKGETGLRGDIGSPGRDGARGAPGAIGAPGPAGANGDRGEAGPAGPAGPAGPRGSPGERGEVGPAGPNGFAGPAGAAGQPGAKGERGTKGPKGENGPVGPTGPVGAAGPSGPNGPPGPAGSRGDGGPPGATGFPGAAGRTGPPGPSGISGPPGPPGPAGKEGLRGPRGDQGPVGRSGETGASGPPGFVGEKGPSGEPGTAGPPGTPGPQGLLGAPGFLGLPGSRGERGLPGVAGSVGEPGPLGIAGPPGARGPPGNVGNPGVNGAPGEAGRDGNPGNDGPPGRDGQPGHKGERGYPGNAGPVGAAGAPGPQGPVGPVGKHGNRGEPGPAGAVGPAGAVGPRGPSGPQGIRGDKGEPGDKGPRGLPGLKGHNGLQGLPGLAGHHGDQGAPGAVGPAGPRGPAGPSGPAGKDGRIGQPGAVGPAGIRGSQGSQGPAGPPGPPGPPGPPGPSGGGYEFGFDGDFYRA

UniProt P02454, sequence (P02454 152-1207, chain 1 of 2): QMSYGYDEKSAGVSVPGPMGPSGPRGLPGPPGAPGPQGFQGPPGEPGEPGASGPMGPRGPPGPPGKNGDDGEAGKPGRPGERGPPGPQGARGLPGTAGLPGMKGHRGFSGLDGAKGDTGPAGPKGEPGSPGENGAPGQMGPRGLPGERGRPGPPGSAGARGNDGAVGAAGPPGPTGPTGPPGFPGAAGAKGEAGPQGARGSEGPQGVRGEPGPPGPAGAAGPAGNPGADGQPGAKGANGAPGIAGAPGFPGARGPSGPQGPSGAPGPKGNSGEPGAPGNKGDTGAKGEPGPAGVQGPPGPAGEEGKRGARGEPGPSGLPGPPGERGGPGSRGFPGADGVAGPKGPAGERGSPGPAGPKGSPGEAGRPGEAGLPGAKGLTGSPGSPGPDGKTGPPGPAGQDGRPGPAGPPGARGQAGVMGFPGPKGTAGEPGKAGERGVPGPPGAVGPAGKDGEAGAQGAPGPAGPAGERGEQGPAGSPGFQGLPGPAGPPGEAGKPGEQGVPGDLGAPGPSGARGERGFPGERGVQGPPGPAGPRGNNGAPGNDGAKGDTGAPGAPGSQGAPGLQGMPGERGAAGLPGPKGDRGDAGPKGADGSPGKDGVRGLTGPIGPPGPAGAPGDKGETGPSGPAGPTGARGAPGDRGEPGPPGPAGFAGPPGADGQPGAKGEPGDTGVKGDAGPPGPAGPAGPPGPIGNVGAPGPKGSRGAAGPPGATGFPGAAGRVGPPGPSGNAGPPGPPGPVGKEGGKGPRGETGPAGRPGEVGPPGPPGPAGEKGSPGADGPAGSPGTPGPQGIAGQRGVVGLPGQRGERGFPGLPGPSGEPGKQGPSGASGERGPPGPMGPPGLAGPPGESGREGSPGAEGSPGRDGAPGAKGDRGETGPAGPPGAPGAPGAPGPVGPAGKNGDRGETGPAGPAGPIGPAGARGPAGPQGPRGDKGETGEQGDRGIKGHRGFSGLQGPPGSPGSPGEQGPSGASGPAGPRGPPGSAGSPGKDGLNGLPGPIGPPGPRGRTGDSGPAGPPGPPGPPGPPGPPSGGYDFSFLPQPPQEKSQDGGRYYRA
UniProt P02454, sequence (P02466 86-1125, chain 2 of 2, further chain): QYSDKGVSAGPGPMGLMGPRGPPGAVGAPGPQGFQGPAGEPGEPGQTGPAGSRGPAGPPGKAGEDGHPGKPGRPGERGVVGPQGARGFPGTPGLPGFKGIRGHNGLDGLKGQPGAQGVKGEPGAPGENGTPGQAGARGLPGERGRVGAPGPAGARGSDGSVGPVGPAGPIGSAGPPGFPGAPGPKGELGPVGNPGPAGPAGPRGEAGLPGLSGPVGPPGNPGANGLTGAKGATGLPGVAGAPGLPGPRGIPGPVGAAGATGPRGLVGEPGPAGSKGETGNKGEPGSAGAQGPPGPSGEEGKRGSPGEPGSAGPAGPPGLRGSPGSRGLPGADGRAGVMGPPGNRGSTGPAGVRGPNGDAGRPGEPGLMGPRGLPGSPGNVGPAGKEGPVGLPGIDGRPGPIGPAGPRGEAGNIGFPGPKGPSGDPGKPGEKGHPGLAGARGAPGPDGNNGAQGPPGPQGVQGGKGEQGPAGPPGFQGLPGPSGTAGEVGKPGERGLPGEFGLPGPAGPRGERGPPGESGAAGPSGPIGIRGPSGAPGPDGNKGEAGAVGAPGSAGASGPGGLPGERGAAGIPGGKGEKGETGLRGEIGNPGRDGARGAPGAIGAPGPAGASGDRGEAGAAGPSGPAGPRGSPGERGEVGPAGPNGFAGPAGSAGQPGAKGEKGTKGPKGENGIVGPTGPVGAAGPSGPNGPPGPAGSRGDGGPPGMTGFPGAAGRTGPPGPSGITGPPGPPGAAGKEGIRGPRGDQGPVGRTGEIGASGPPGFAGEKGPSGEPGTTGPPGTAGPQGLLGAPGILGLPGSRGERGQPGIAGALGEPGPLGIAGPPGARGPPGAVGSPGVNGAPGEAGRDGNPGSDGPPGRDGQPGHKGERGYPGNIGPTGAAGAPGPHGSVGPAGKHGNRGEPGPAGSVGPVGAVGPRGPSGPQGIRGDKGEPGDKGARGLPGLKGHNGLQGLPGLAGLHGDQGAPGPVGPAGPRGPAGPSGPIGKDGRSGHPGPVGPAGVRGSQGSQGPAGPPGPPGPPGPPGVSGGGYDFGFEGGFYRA

Yersinia enterocolitica Adhesin A (YadA), wild type, on the surface of E. coli cells (from UniProt A1JUB7 26-422) (natural protein)
fold difference of signal, induced against not-induced control [1]: 2.5 fold | fold change of signal, YadA-expressing against uninduced cells (collagen-coated, BSA-blocked wells) [2]: 4.1 fold | fold change of signal, YadA-expressing against uninduced cells (collagen-coated, not BSA-blocked wells) [2]: 4.4 fold
